Molecular target: Ankyrin and SOCS Box-containing protein-10 (Asb10), rat, FLAG-tagged, expressed from adenovirus (Ad-Asb10) (rat)
Assay: co-IP; NRVMs overexpressing Asb10; lysates incubated with antibody and Protein A&G magnet beads overnight at 4 °C, washed 5 times with 0.5% PBST; western blot of candidate interacting proteins (Fig. 3C)

HSC70, endogenous in NRVMs (from UniProt P63018 1-646) (natural protein)
fold weaker binding than HSP70 with Asb10: 10 fold

— article PMC12095639
